Results on 140 substances are retold here after the supplement of paper PMC12042874.

± gives the uncertainty stated by the source.

The data set is described as follows: amyloid nucleation score (Sup35N fusion, yeast selection) (log enrichment); library NNK1; higher = more nucleation; inactive = no reads after selection. Put shortly: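 The nucleation score is the DiMSum log enrichment of output over input reads, centred on the mode score of non-aggregating sequences. Only sequences with 100 or more input reads were scored, using Illumina sequencing of input and output plasmid inserts. Psi-negative yeast expressing Sup35N fused to peptides of 20 random codons were induced 24 hours with 100 μM copper sulfate and grown 7 days at 30°C on medium lacking adenine and uracil.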

Turning to VSMHWSISRCIC, the amyloid nucleation score was determined as 0.772 ± 0.43.
In the case of IYYRTMYYMVVSSIN it was 0.394 ± 0.65; in that of TVVHINHHFRGTFISMAKSR, -1.58 ± 2.1.
HNLRVIFCY yielded an amyloid nucleation score of 0.421 ± 0.58.
In the case of SATIKYHYFLTFFNVDRFCR it was 2.07 ± 0.46.
In the case of CGEIENRMVTEAVTALLLYD it was 0.034 ± 0.41; in that of SMFRAFKGYLWGNCSREAQR, 0.026 ± 0.25; in that of APVFYIPIMFSQLFGLAQIY, 6.935 ± 0.06.
Then STKQFFRLAFRGPWKTGHKP, with 0.273 ± 0.96; and KKGVIGKG, with -2.31 ± 1.6.
Substance FNAAYIAGVGNLMTWDNSSN registered an amyloid nucleation score of -1.07 ± 0.61.
As to LRTMGISCDWETFDLDINKG, the amyloid nucleation score result is “inactive”.
In the case of FMHAGIYL it was 0.043 ± 1; in that of IISRLCLQLPATRT, 1.21 ± 0.67; in that of WFSVMLRYEY, 1.71 ± 0.2.
Then IDMIVGNLN, with “inactive”.
TLRLAREGWWEWKHVSRGEY showed an amyloid nucleation score of -0.033 ± 0.26.
Then FQMNSCNWSVTGRIVFPDVY, with 1.58 ± 0.42; and LRYLQQWYST, with 2.67 ± 0.19; and HLWSFAEMLNNHAVEDCVCT, with “inactive”.
Turning to SLGVSDI, the amyloid nucleation score was -1.16 ± 0.41.
In the case of CVSYNLFLWSYFKRWSNRTC it was 0.141 ± 0.79; in that of YLAGILHTCLTLDSDVRFYT, 0.722 ± 0.54.
CMLDGALLLILVVFTIPCLN: the amyloid nucleation score came to 0.909 ± 0.6.
In the case of INRSSVESLVLTDLKHWTSG it was 0.504 ± 0.49; in that of LVRTIVLNKRIMWMIQLCFK, 0.86 ± 0.63.
In the case of IPGTPMT it was “inactive”; in that of NLHNRTCWCMYLFDTSWS, 0 ± 0.29; in that of WSYGSEPM, “inactive”.
Then LTMPYAI, with “inactive”; and KVLSIRWECPLECFALQSYV, with 0.042 ± 0.32; and NLCVVREWYSKSCWPRFLRV, with -0.274 ± 0.56.
For QSVQHFGGYTKTLGASMGTF, the amyloid nucleation score is -0.797 ± 2.4.
In the case of TVCYTGEVRMLRS it was 4.22 ± 0.068.
Then GDANLGKQLWRGWNVG, with 0.228 ± 1.2; and ALDQN, with -0.412 ± 0.78.
Then CRNWKWSRRFYYGERNGGRL, with 0.416 ± 0.81.
The substance MNVFRGSVPAFPLPPYMRLA displayed an amyloid nucleation score of -0.242 ± 0.34.
In the case of YHVMD, the amyloid nucleation score result is “inactive”.
In the case of YFGVFCQRMMVTALSPKNPT it was -0.369 ± 0.32; in that of LRSSWRTSIWHTWLWPYGDW, 0.287 ± 0.87.
Then KMLNISGDTMWYVILVLRYV, with -0.292 ± 0.56.
As to DQIGDYLRFACSDKDYS, the amyloid nucleation score turned out to be 0.039 ± 0.76.
In the case of RRLPA it was -0.091 ± 0.9; in that of RILKMYTYVLTMADHVLNKS, 0.21 ± 0.2.
In turn, SVYWKYLYP returned an amyloid nucleation score of 1.98 ± 0.098.
In the case of YDYSLCANIMNRYHAK it was 0.333 ± 0.29; in that of FFDSRFLFDSRTGSMYA, -1.71 ± 1.5; in that of RIDQNICGIVNMVFR, 6.311 ± 0.047.
Then VSIIE, with -0.127 ± 0.4.
Regarding WYLWHMLICLVTFRMNSFFR, the amyloid nucleation score stood at 0.707 ± 1.
In the case of GKMMVFRVFFRFVPSESWVI it was -0.638 ± 0.52.
The substance LYLEGINVFSVMLHEVLHTG showed an amyloid nucleation score of -0.052 ± 0.43.
Then YCKLDVAVFCVQYNMSMSEQ, with 5.46 ± 0.079; and LEINIVACVDTA, with -0.559 ± 0.36.
Regarding FCRKSQEKYWVPFK, the amyloid nucleation score was -0.667 ± 1.
Turning to EPTDYWRVY, the amyloid nucleation score result was “inactive”.
Take LFTIMMQPMGCHPCRPLASQ: the amyloid nucleation score stood at 0.082 ± 0.52.
The substance SHERLNQCSNFSSWQNRGGL displayed an amyloid nucleation score of -0.588 ± 0.73.
Then VCRVMTSLNEGKLSAECVLV, with 0.594 ± 0.32.
In the case of SNFMGQD it was 0.733 ± 0.7; in that of KVFISCYLWYA, 3.8 ± 0.072.
Substance NVSVVSSHMLICMGMATRNP had an amyloid nucleation score of 1.92 ± 0.36.
In the case of NQNAGELNKFPWDRWKYLYV it was -1.1 ± 0.74; in that of VLCSSWLLWKDAI, 0.218 ± 0.61; in that of LFASESRWSRRYMFPWCRLC, -0.445 ± 0.91.
The substance LQKRANNRRC had an amyloid nucleation score of -0.372 ± 0.5.
In the case of PYGIGIFNYLWATGMNLSQA, the amyloid nucleation score was -0.071 ± 0.43.
In the case of GSADMRLDLQVVGCMTCRFE it was 0.386 ± 1.1; in that of RRCSEM, 0.853 ± 0.4.
In the case of YVTFGWIYTSLVPYRLEVIL it was 0.243 ± 0.42.
Then DLTGKVRYQSVLPFVASPSM, with 0.11 ± 0.62.
With FYKQLYSAEHKKFSCTAFVK, the amyloid nucleation score result is “inactive”.
In the case of EFRQMVVSSGSDERGERDKG it was 0.052 ± 0.29; in that of FEVSGMCRVQVVTYNFFSSS, 6.99 ± 0.088.
SIFVG: the amyloid nucleation score is 0.353 ± 1.2.
In the case of LVMTYVFLDCI it was -0.634 ± 1.1; in that of LCELNSKAVYGSKMAHCYSS, -0.151 ± 0.33; in that of IINKSLWLPRNLAFGNY, 0.117 ± 0.47.
SFSCSVVLNRILMGIIYTCG: the amyloid nucleation score is -0.836 ± 0.55.
In the case of LFLGLPELVQNSLDMLVSLW it was 0.217 ± 0.31; in that of QANAMNYKEKLFNFRYRGAM, -0.722 ± 0.53; in that of SQTSVPGGSDEAGAGVKQGF, 0.134 ± 0.56.
In the case of CYAPSGLLNLPNASFS it was -1.26 ± 1.5.
On to SLNPALFTVSYPLVMLENDT, for which the amyloid nucleation score came out at 0.19 ± 0.29.
In the case of IFCSNECVSTVDADTPGLSL it was 9.289 ± 0.044.
Then SFSMFSEFSLLRCSAYRNPM, with 2.26 ± 0.063.
Substance RTLMRLN returned an amyloid nucleation score of -0.762 ± 0.41.
In the case of LDLNRFDPWVVTSLLCFPVA it was -1.42 ± 1.5; in that of ALMRLTRNSMSFWRQ, -0.17 ± 0.36.
Then SGSINENVKYSDTLVWLWKM, with 4.92 ± 0.055.
In the case of AKSWCVSIKLVSDNSYLWET it was 1.12 ± 0.14; in that of KSRFSDGGSSWFCGTFMFYT, -0.723 ± 0.42.
Substance GLMGLFVKWYNVVQIFQSRM displayed an amyloid nucleation score of -0.437 ± 0.61.
In the case of GMGGGICSSEKMRCGNVEGV it was -0.857 ± 0.34.
Then CVSHFIHCDWLGQRL, with 0.135 ± 0.26.
In the case of HGLLHQVSVMPGIPSMAFNI it was -0.016 ± 0.68; in that of RHVYW, 0.551 ± 0.39; in that of DVMRYWVMRVVMPAKFKKAY, -0.244 ± 1.1.
In the case of FVIFSIELCGHRATSSSFNL, the amyloid nucleation score was 5.565 ± 0.047.
Take FRSFLVPACYHGFGDGYMFF: the amyloid nucleation score was -0.439 ± 0.77.
Then IRWRSSFVQSMMVTHQHQSF, with 1.85 ± 0.16.
In the case of LSGWRYMVKA it was 0.039 ± 0.41; in that of NMWGVGDVTGIF, 1.62 ± 0.59; in that of GRSSTRRNLIVDQSSVSERC, -0.009 ± 0.53.
Turning to LVTFNDSQLSTWASLGLNS, the amyloid nucleation score was -0.003 ± 0.46.
Then RHTETSLASSARKPALNPT, with 0.197 ± 0.41; and SSLYETY, with “inactive”.
Then FWVQNMVGNFFNYYFDRGNQ, with 7.791 ± 0.045.
In the case of FCDRNIIVCSELGKGWLWLR it was 1.4 ± 0.25; in that of YLVTYVLSIRNCGIYIWIRR, 0.413 ± 0.49; in that of YRNGCTFGWWRWRR, 1.08 ± 0.28.
For the substance HIGIWTIPSRKEGR, the amyloid nucleation score entry is “inactive”.
In turn, YLQLSRAVQRVLTRRWSSI showed an amyloid nucleation score of 0.31 ± 0.52.
Then FGQSQPCDVTRENFCKEACN, with -0.028 ± 0.9.
Then GNVAWYTSIGCGGMILWADF, with -0.124 ± 0.76.
In the case of RINQVTGVVQLVFRCRNSRL, the amyloid nucleation score was found to be 7.643 ± 0.047.
In the case of LGDTVCVRYCR it was 0.223 ± 0.37.
In the case of LRCSLDGFFGLDWLANLILD it was -0.115 ± 0.23.
For the substance DKTECDQCIKSG, the amyloid nucleation score was -0.691 ± 0.42.
In the case of LRSKFRCLSILVRMVIIDCF it was 0.457 ± 0.62; in that of FASWFFMCRDGGLIM, -0.573 ± 0.66.
Then NMAMYSIWGGWWMVLFCVLL, with “inactive”.
In the case of DWCYYKRADRRTSSESSRAG it was 0.333 ± 0.99; in that of GKCVTWQASCLQCSKSNWYQ, 0.995 ± 0.81; in that of HFAPLFDYNLTGIKTLKTAD, 0.1 ± 0.77.
On to YCGMCVYLISYMATFNCYYY, for which the amyloid nucleation score turned out to be 3.54 ± 0.1.
As for LRWYTQGMVLLEDRPCRCYN, the amyloid nucleation score is -1.01 ± 0.41.
Then WLWPPLACDHMPIAVSETDA, with -0.775 ± 0.99.
In the case of WRFLLWSFHSEAYLIVYS it was -0.773 ± 0.49; in that of IYGELLHLWLISEFCDVRNC, 0.788 ± 0.79; in that of MLNAIRSVGMSTHRSSEGG, -0.475 ± 0.77.
In the case of IYMVSC, the amyloid nucleation score turned out to be 0.077 ± 0.27.
For the substance WLDHEISSELAGYPLWLSAN, the amyloid nucleation score was determined as 2.19 ± 0.17.
The substance MWHERVGDVTVAHSNVGVMI gave an amyloid nucleation score of 3.85 ± 0.082.
In the case of GFLSATWCSQWSIILVKERG it was 1.48 ± 0.45; in that of KIGWL, -0.555 ± 0.58; in that of NPLTGAL, -0.406 ± 0.56.
In the case of ISINHVTCRLVFETGKWRWG, the amyloid nucleation score worked out at 3.45 ± 0.086.
In the case of CGCCARWNYIIMMGWGGCVL it was 0.096 ± 0.69.
